Changes are numbered by the printed parent chain.
B1: ADI-41794 (antibody, V domains shown)
VH: EVQLQQWGAGLLKPSETLSLTCAVYGGSFSGYYWSWIRQPPGKGLEWIGEINHSGSTNYNPSLKSRVTISVDTSKNQFSLKLSSVTAADTAVYYCARGTRTIVYCDGDCYQPWAYHYYGMDVWGQGTTVTVSS
VL: QSVVTQEPSVSAAPGQKVTISCSGGSSNIGNNYVSWYQHLPGTAPKLLIYDNDKRPSGIPDRFSGSKSGTSATLGITGLQTGDEADYYCGTWDSSLSAVVFGGGTKLTVL
B2: ADI-41781 (antibody, V domains shown)
VH: QVQLVQSGAEVRKPGASVKVSCKAFGYTFTNFAISWVRQAPGQGLEWMGWIGPYNGDTDYEQKFQGRVTMTADTSSSTVFMELRSLRFDDTAVYYCARGKGSTIPLGYYIGMDVWGQGTTVTVSS
VL: ETTLTQSPSSLSASVGDRVTMTCRASQGISNYLAWYQQKPGKPPKLLIYLASSLQSGVPSRFSGSGSGTDFTLTISSLQPEDVATYYCQKYNSAPLTFGGGTKLEIK
B3: ADI-41804 (antibody, V domains shown)
VH: QVQLQQWGAGLLKPSETLSLTCSVLGGSFSGYYWTWIRQPPGKGLEWIGEITHDGSSNYNPSLNSRVTISVDTSNYQFSLKMRSVTAADTAVYYCARSPDLTIFGGLYFYYGISVWGQGTTVTVSS
VL: DIQMTQSPSSLSASMGDRVTITCRASQDISNYLAWYQQKPGKVPNLLIYAASTLQGGVPSRFSGSGSGTDFTLTISSLQPEDVAIYYCQKYKSAPRTFGQGTKVEIK
B4: ADI-41678 (antibody, V domains shown)
VH: EVQLVESGGGVVQPGGSLRLSCAASGFTFRTYGMHWVRQAPGKGLEWVAVISYDGSNKYYADSLMGRFTISRDNSKNTLYLQMNSLRAEDTAVYYCAKCFVPGSGGWYEYYFDYWGQGTLVTVSS
VL: QSVLTQPPSASGSPGQSVTISCTGTSSDVGGYNYVSWYQQHPGKAPKLMIYEVSKRPSGVPDRFSGSKSGNTASLTVSGLQAEDEADYYCSSYAGINNSVLFGGGTKLTVL
B5: ADI-41803 (antibody, V domains shown)
VH: RCTLQQWGAGRVKPSETLSLTCAVYRGPFSGYYWSWIRQPPGKGLEWIGEINLGETNPGGSTHYNPSLRSRLSMSIDTSKKQFSLRVNSVTAADTAVYYCTRGPVSRIYDTSGSYSLNYYGMDVWGQGTTVTVSS
VL: DIRMTQSPSSLSASVGDRVTITCRASQGIRNDLGWYQQKPGRAPERLIYPASSLQGGVPSRFIASGSGTEFTLTISNLQPEDFATYYCLQHNSYPRTFGQGTKVEIK
notes: also called Ab 912; Antibody Number 912
B6: ADI-41807 (antibody, V domains shown)
VH: EVQLLESGPALVKPTQTLTLTCTFSGFSLTTTRMSVSWIRQPPGKALEWLARIDWDDDKYYSTSLKTRLTISKDTSKNQVVLTMTNMDPVDTATYFCARVNVYAANGYYSYYLDYWGQGTLVTVSS
VL: DIVMTQTPSSLSASVGDRVTITCRTSQSSSRYLNWYQKEPGKAPRLLIYLASALRSGVPSRFSGSGSGTDFTLTISSLQSEDFATYYCQQTYSIPWTFGQGTKVEIK
B7: ADI-41743 (antibody, V domains shown)
VH: EVQLVESGSGLVKPSQTLSLTCSVSGGSISSGGYSWSWIRQPPGKGLEWIGFIYNTGSTYSNPSLKSRLTLSVDRSNNRFSLKLNSVTAADTGVYFCARSGNVRQCDATGHCSTNYYFEYWGLGTLVTVSS
VL: EIVMTQSPATLSVSPGERATLSCRASQSVSSNLAWYQQKPGQAPRLLIYGASTRATGIPARFSGSGSGTEFTLTISSLQSEDFAVYYCQQHDDWPPLTFGGGTKVEIK
notes: also called Ab 898; Antibody Number 898
B8: ADI-41701 (antibody, V domains shown)
VH: QVQLVQSGAEVKKPGESLKISCQASGYSFTTYWIGWVRQTPGKGLEWMGIIYPGDSDTRYTPSFQGQVTISADKSISTAYLHWSSLKASDTAMYYCARLSGGYTFGFDYWGLGTLVTVSS
VL: NFMLTQPHSVSESPGKTVTISCTRSSGNIARYYVQWYQQRPGRAPTTVIYEDDQRPSGVPDRFSGSIDRSSNSASLTISGLKTEDEADYYCQSYDASNYVFATGTKVTVL
B9: ADI-41799 (antibody, V domains shown)
VH: QVQLVQSGAEVKKPGSSVKVSCQASGGTFSTHALSWVRQTPGHGLEWVGGVLPVFGATKYPRKFQGRVTITADKSTNTAYMELSSLRSDDTAVYYCARVVVHSTITTAKDFFSGVHDIWGQGTMVTVSS
VL: DIRMTQSPSTLSASVGDRVTITCRASQTVSSWLAWYQQKPGKAPKLLIYQASSLESGVPSRFSGSGSGTEFTLTISGLQPDDFATYFCQHYNSYSPVTFGGGTKVEIK
notes: also called Ab 910; Antibody Number 910
B10: ADI-41768 (antibody, V domains shown)
VH: EVQLVESGGGLVQPGRSLRLSCAASGFTFGDYAMHWVRQAPGKGLEWVSGITWNSGRVVYADSVKGRFTISRDNAKNSLYLQINSLRAEDTALYYCVKGSCNGGICYSADYWGQGTLVTVSS
VL: NFMLTQPHSVSESPGKTVTISCTRSSGSIARNFVHWYQQRPGSSPTTVIYEDNQRPSGVPGRFSGSIDSSSNSASLTISGLRSEDEADYYCQSYDSDNWVFGGGTKLTVL
notes: also called Ab 900; Antibody Number 900
B11: ADI-41703 (antibody, V domains shown)
VH: EVQLLESGSGLVKPLQTLSLTCAVSGGSISSGGYSWSWIRQPPGKGLEWIGYIYPSGSTYYNPSLKSRVTMSIDRSKNQFSLRLTSVTAADTAVYYCARGDGNDFWSADSSHAFAIWGQGTMVTVSS
VL: EIVMTQSPGTLSLSPGERATLSCRASQIVGNSYLAWYQQKPGQAPRLLIYGASSRATGIPERFSGSGSGTDFTLTISRLEPEDFAVYHCQQYGSSPWTFGQGTKVEIK
notes: also called Ab 895; Antibody Number 895
B12: ADI-41737 (antibody, V domains shown)
VH: QVQLQESGPGLVKPSQTLSLTCTVSGGSMISGDFYWSWIRQPPGKGLEWIGYIYYSGTTYYSPSLKSRVSMSIDTSKSQFSLKLSSVTAADTAVYYCARKYSYGEKAYHYWGQGTLVTVSS
VL: B11 VL with M4L, I28T, S32N, E61D, P81S, Q90H, S94T, W97Q
notes: also called Ab 897; Antibody Number 897
B13: ADI-41778 (antibody, V domains shown)
VH: QVQLVESGGGQGQPGRSLRLSCAASGFTFDDYAMHWVRQVPGKGLEWVSGINWNSGYIGYADSVKGRFTISRDNAKNSLYLQMNSLRAEDTALYYCAKANNPIDSSGYNRGFDTWGQGTLVTVSS
VL: QSALTQPRSVSGSPGQSVTISCTGTSSDVGGYNYVSWYQQHPGKAPKLMIYDVNKRPSGVPDRFSGSKSDNTASLTISGLQAEDESDYFCCSYAGTYTWVFGGGTKVTVL
B14: ADI-41720 (antibody, V domains shown)
VH: QVQLVESGGGVVQPGRSLRLSCAASGFTFSSYGMHWVRQAPGKGLEWVSVIWFDGSKKYYEDSVKGRFTISRDNSKNTLYLEMNSLRAEDTAVYYCAREAPVRLGELSLYGYFDYWGQGTLVTVSS
VL: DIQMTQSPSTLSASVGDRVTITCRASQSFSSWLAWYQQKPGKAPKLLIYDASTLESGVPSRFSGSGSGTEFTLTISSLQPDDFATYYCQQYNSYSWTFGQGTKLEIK
notes: also called Ab 896; Antibody Number 896

What follows are binders tested against RSV prefusion F (preF), DS-Cav1 (Respiratory syncytial virus, UniProt P03420 26-513) (assay: BLI, IgG on anti-human IgG sensor, 100 nM antigen).
B1 gave a Kd of 3.31 nM. Work on B2 yielded a Kd of 3.46 nM. B3 was tested, and the Kd was 0.331 nM. B4 gave a Kd of 2.92 nM. With B5 the Kd was 1.99 nM. B6 gave a Kd of 1.5 nM. With B7 the Kd was 5.45 nM. In the case of B8, the Kd is reported as 1.93 nM. B9 showed a Kd of 3.28 nM. With B10 the Kd was 1.61 nM. Work on B11 yielded a Kd of 4.2 nM. B12 gave a Kd of 3.58 nM. In the case of B13, the Kd is reported as 2.75 nM. Work on B14 yielded a Kd of 22 nM.

What follows are binders tested against RSV postfusion F (postF), F ΔFP (Respiratory syncytial virus, UniProt P03420 26-513) (assay: BLI, IgG on anti-human IgG sensor, 100 nM antigen).
B1 showed a Kd of 3.01 nM. With B2 the Kd was 0.653 nM. For B3, the Kd was 0.436 nM. B4 showed a Kd of 1.17 nM. Binder B5 has a Kd of 0.711 nM. B6 was tested, and the Kd was 1.19 nM. Binder B7 has a Kd of 1.27 nM. B8 gave a Kd of 0.289 nM. With B9 the Kd was 1.1 nM. B10 was tested, and the Kd was 0.338 nM. B11 was tested, and the Kd was 0.843 nM. B12 was tested, and the Kd was 1.58 nM. B13 showed a Kd of 0.504 nM. Work on B14 yielded a Kd of 1.17 nM.

The binders below were run against RSV F on RSV-A2 virus (Respiratory syncytial virus, RSV-A2, UniProt P03420 26-574) (assay: cell-based or functional assay).
In the case of B1, the “Neutralization IC50 (RSV subtype A)” value is reported as > 25 mg/L. In the case of B2, the “Neutralization IC50 (RSV subtype A)” value is reported as > 25 mg/L. For B3, the “Neutralization IC50 (RSV subtype A)” value was > 25 mg/L. B4 was tested, and the “Neutralization IC50 (RSV subtype A)” value was > 25 mg/L. In the case of B5, the “Neutralization IC50 (RSV subtype A)” value is reported as > 25 mg/L. In the case of B6, the “Neutralization IC50 (RSV subtype A)” value is reported as > 25 mg/L. With B7 the “Neutralization IC50 (RSV subtype A)” value was > 25 mg/L. With B8 the “Neutralization IC50 (RSV subtype A)” value was > 25 mg/L. For B9, the “Neutralization IC50 (RSV subtype A)” value was > 25 mg/L. In the case of B10, the “Neutralization IC50 (RSV subtype A)” value is reported as > 25 mg/L. In the case of B11, the “Neutralization IC50 (RSV subtype A)” value is reported as > 25 mg/L. B12 was tested, and the “Neutralization IC50 (RSV subtype A)” value was > 25 mg/L. B13 was tested, and the “Neutralization IC50 (RSV subtype A)” value was > 25 mg/L. In the case of B14, the “Neutralization IC50 (RSV subtype A)” value is reported as > 25 mg/L.
